{"source": "paper PMC6675907", "about": "“Identification and functional characterisation of a novel N-cyanoamidine neonicotinoid metabolising cytochrome P450, CYP9Q6, from the buff-tailed bumblebee Bombus terrestris” (Insect Biochemistry and Molecular Biology, 2019)", "proteins": {"B1": {"name": "CYP9Q6 (Bombus terrestris audax) (protein)", "chain": "MEYLSLGLFLIAILIAIYYCATKNHNLFKKHGILHIPPMPLFGNMGSFFAKRSTLQDTILEAYELHPEAKYVGIYESLTPIIVLRDLDLIKSVNMKNFDHFTDHRNFVFKDMDPIFAGMLFSMKGEQWKEQRSILSLAFTSNKVKDMFNLMSECATRYANYLSNLAENEREMEMRDLLTKYTNDVIATCVYGVSVDTIKNPKNVFYTYGKSTTFTSFKKDMAMLAQRNLPWLAKLFQLRFLEKHIAKFFTEQVINTIEERKQNGTYRSDILQLFIDVNDKKVPGKGMSTENMVNHAFSLFFGGTDSVATQTSFLFYLLAENPEILKRLQEEIDETLENNNGQLTYDAIQKMKYLDAMINEAMRLQPITVFLDRLCVKDFELPPALPGEKPFTVKAGMNIWIPVDAIHHDPKHYENPQKFDPDRFLENGKKIINSGAFMPFGLGPRICIGNRFALTEIKVLLCHILAKCNVKIGSKMLLPLQYEEGVITAYAKNGFWLNVEPREHSYCTSQTNGTTKHLSNGNCRN", "notes": "with NADPH--cytochrome P450 reductase (Musca domestica, house fly)"}}, "key": {"[1]": {"substrate": "C/C(=N\\C#N)N(C)Cc1ccc(Cl)nc1", "experiment": "LC-MS/MS of metabolites, microsomes with recombinant P450/CPR, Michaelis-Menten fit", "assay_type": "biochemical, Bombus terrestris", "settings": "NADPH regeneration system, 30 °C, 1 h, substrate 3.1-200 μM, house fly CPR co-expressed"}, "[2]": {"substrate": "N#C/N=C1\\SCCN1Cc1ccc(Cl)nc1", "experiment": "LC-MS/MS of metabolites, microsomes with recombinant P450/CPR, Michaelis-Menten fit", "assay_type": "biochemical, Bombus terrestris", "settings": "NADPH regeneration system, 30 °C, 1 h, substrate 3.1-200 μM, house fly CPR co-expressed"}}}
{"protein": "B1", "values": [{"measurement": "Km", "setting": "[1]", "value": 27.32, "unit": "µM"}, {"measurement": "Km", "setting": "[2]", "value": 15.83, "unit": "µM"}]}
